Results on two molecules are retold here after patent publication US20230399394A1 (SUNSHINE GUOJIAN PHARMACEUTICAL SHANGHAI, published 2023).

Test [1] concerns the target T1, IL-33 mutant protein K46A (human, UniProt O95760 112-270).
T1 construct: Prokaryotic expression
T1 chain: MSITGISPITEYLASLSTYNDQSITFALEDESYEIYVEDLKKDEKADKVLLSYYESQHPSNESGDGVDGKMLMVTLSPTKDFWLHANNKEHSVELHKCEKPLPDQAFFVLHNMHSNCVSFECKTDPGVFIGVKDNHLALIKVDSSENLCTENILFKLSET
In words: ELISA as Example 9; row K46A. On the procedure:
(§1) SA protein was diluted to 2 μg/mL to coat ELISA plate at 100 μL/well overnight at 4° C. The plate was washed with PBST (PBS containing 0.05% Tween20) for 3 times, and blocked with 2% BSA prepared in PBS at 200 μL/well, at room temperature for 2 h. After the plate was washed twice with PBST, IL-33-his-biotin protein was diluted to 1 μg/mL with 1% BSA prepared in PBST, and was added to ELISA plate at 100 μL/well. The plate was incubated at room temperature for 1 h, and each monoclonal antibody was diluted with 1% BSA prepared in PBST in a 3-fold gradient. The highest concentration of antibody was 10 μg/mL, and the antibody was diluted for 12 gradients. Each diluted monoclonal antibody was added to ELISA wells with 100 μL/well, and the plate was incubated at room temperature for 1 h. Each sample was added to duplicate wells in parallel. The plate was washed with PBST for 3 times, and HRP-anti human IgG Fc secondary antibody prepared with PBST was diluted at an appropriate ratio, and was added to ELISA wells at 100 μL/well. […] Each reaction solution was shaken uniformly and OD450 nm was read on a microplate reader. The data was analyzed and EC₅₀ was calculated.
(§2) Subsequently, according to the experimental method of Example 9, the affinity of the above mutant proteins to 874F7-Hu1 was determined, and IL-33 proteins (WT-1, WT-2, WT-3, and WT-4) without any mutation were set as controls.
Background: In an ELISA, binding on a coated surface is turned into a signal by an enzyme label.

Test [2] has as its target T1, IL-33 mutant protein K46A. In words: ELISA as Example 9; row K46A against WT-1. On the procedure:
as §1, §2

Test [3] deals with T2, IL-33 mutant protein N61A (human, UniProt O95760 112-270).
T2 chain: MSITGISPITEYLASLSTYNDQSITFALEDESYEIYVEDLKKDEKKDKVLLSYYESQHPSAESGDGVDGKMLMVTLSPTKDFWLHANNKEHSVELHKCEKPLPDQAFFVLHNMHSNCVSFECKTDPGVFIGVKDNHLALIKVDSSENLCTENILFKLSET
In words: ELISA as Example 9; row N61A against WT-3. On the procedure:
as §1, §2

For the next test, the target named is T3, Human IL-33-his (human, UniProt O95760 112-270, biotinylated with EZ-Link NHS-Biotin where used as IL-33-his-biotin).
T3 construct: Used plain (SPR, cell assays) and biotinylated (ELISA); also called IL-33-his-biotin
T3 sequence: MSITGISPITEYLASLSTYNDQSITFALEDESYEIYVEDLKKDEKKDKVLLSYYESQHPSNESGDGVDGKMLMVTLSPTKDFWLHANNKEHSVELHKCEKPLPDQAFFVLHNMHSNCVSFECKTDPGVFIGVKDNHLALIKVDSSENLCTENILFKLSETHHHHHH
In words: indirect ELISA, biotinylated IL-33-his on streptavidin plate. On the procedure:
The binding ability of murine antibody to human IL-33 protein was determined by indirect enzyme-linked immunosorbent assay (ELISA). The specific methods were as follows: The plate was pre-coated with biotin-avidin (SA) which was diluted in coating solution (50 mM carbonate coating buffer, pH 9.6) to 2 μg/ml at 4° C. overnight, then the plate was blocked with 5% skim milk powder at 37° C. for 2 hours and stored at −80° C. for later use. Biotinylated recombinant human IL-33-his protein was diluted to 0.5 μg/ml in coating solution (50 mM carbonate coating buffer, pH 9.6) and was added at 100 μl/well to the pre-coated SA plate, 37° C., 0.5 h. After washing the plate with PBST for 3 times, the antibodies to be tested were diluted by gradient with 1% BSA buffer and added into the blocked plate at 100 μl/well, and incubated at 37° C. for 1 hour. The plate was washed with PBST for 3 times, and the HRP-labeled goat anti-mouse IgG was added and placed at 37° C. for 30 min. After washing the plate with PBST for 3 times, the plate was patted on the absorbent paper to remove residual droplets as far as possible. […] OD values were read at 450 nm on the microplate reader to analyze the binding ability of the antibodies to be tested to the target antigen human IL-33-his.

The target in another test is T4, Cynomolgus IL-33-his (cynomolgus, UniProt A0A2K5W3I1 112-269, biotinylated in the ELISA of Example 6).
T4 construct: Bought protein; also called cynomolgus IL-33 protein; Cynomolgus monkeys IL-33
T4 sequence: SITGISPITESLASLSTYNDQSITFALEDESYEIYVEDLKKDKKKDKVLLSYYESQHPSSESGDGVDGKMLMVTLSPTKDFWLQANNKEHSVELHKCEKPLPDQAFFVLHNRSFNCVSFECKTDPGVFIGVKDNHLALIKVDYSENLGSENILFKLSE
In words: indirect ELISA, biotinylated cynomolgus IL-33-his on streptavidin plate. On the procedure:
The binding ability of murine antibody to cynomolgus IL-33 was determined by indirect enzyme-linked immunosorbent assay (ELISA). The specific methods were as follows: The plate was pre-coated by biotin-avidin (SA) which was diluted in coating solution (50 mM carbonate coating buffer, pH 9.6) to 2 μg/ml at 4° C. overnight. The plate was blocked with 5% skim milk powder at 37° C. for 2 hours, and stored at −80° C. for later use. Biotinylated recombinant cynomolgus IL-33-his protein was diluted to 1 μg/ml in coating solution (50 mM carbonate coating buffer, pH 9.6) and was added at 100 μl/well to the pre-coated SA plate for 0.5 h at 37° C. After washing the plate with PBST for 3 times, the antibodies to be tested were diluted by gradient with 1% BSA buffer and added into the blocked plate with 100 μl/well, and incubated at 37° C. for 1 hour. The plate was washed with PBST for 3 times, and the HRP-labeled goat anti-mouse IgG was added and placed at 37° C. for 30 min. After washing the plate with PBST for 3 times, the plate was patted on the absorbent paper to remove residual droplets as far as possible. […] OD values were read at 450 nm on the microplate reader to analyze the binding ability of the antibody to the target antigen cynomolgus IL-33-his.

B1: 874F7-Hu1 (antibody, human IgG4 S228P, kappa)
heavy: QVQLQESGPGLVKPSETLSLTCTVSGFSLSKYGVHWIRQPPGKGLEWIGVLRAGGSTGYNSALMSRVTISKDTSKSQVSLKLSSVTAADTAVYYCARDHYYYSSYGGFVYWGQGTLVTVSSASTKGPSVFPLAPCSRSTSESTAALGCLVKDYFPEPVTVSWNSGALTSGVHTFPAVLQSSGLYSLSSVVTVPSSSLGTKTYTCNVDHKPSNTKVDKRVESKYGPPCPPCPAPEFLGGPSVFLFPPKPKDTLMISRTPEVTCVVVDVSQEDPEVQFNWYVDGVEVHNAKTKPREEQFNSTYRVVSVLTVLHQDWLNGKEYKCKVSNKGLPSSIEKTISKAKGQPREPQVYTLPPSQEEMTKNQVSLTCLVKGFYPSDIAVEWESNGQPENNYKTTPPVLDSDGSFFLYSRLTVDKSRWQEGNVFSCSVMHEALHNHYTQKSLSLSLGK
light: DIQMTQSPSSVSASVGDRVTITCLASQTIGAWLAWYQQKPGKSPKLLIYAATRLADGVPSRFSGSGSGTDFTLTISSLQPEDFATYYCQQLDSSPYTFGQGTKVEIKRTVAAPSVFIFPPSDEQLKSGTASVVCLLNNFYPREAKVQWKVDNALQSGNSQESVTEQDSKDSTYSLSSTLTLSKADYEKHKVYACEVTHQGLSSPVTKSFNRGEC
notes: also called 874F7-Hul; humanized antibody 874F7-Hu1
For the molecule B1, the response in test [1] was half-maximal at 0.23 nM (EC50). Also, the Affinity decline ratio came out at 1 fold in test [2] and 0.8 fold in test [3].

B2: 874F7 (antibody, V domains shown)
VH: QVQLKESGPGLVAPSHSLSITCNVSGFSLSKYGVHWIRQIPGRGLDWLGVLRAGGSTGYNSALMSRLSISKDSSKSQVFLKMNDLRTDDTAVYFCVRDHYYYSSYGGFVYWGQGTLVTVSA
VL: DIQMTQSPASQSASLGESVTITCLASQTIGAWLAWYRQQPGKSPQLLIYAATRLADGVPSRFSGSGSGTEFSFKINNLQAEDFVSYYCQQLDSSPYTFGGGTRLEM
notes: Murine hybridoma antibody purified on Protein G; also called murine antibody 874F7
On to B2, for which the EC50 in the test with Human IL-33-his was 0.11 nM; in the test with Cynomolgus IL-33-his it was 0.03 nM.

For orientation: EC50 means the concentration needed to bring the measured effect to its halfway point. High values mean lower potency in that assay, low ones higher potency in that assay.
